One block for each binder: values may come before it. *1 amine or outer side, *2 acyl side, *3 side chain or, on linkers, in order; H or OH if unused. Bridges are numbered along the chain shown (N, C = ends). [ ]: non-standard residue; d: D form. The star is where a group is joined. C20 diacid = O=C(O)CCCCCCCCCCCCCCCCCCC(=O)*; γGlu = O=C(O)[C@H](CCC(=O)[*:2])N[*:1]; Hyp = O=C(O)[C@@H]1C[C@@H](O)CN1; NMeI = CC[C@H](C)[C@H](NC)C(=O)O; Sar = CNCC(=O)O
Target: T1, human amylin receptor 3 (hAMYR3), hCTR2 co-expressed with human receptor activity modifying protein 3 (hRAMP3) (human, UniProt P30988 25-474; O60896 24-148)
T1 sequence (looked up) 1: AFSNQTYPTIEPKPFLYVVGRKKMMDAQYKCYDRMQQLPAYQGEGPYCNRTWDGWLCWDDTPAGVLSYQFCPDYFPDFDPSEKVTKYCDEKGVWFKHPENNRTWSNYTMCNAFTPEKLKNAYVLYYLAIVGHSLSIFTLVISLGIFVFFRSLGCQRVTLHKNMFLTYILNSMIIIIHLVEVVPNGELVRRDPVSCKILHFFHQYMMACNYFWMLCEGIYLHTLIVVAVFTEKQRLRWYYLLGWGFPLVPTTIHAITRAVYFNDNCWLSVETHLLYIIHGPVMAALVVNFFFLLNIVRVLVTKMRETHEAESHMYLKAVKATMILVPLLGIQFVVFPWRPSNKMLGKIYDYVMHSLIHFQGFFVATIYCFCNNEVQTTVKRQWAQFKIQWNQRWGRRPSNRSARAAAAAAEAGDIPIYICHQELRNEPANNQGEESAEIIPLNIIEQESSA
T1 sequence (looked up) 2: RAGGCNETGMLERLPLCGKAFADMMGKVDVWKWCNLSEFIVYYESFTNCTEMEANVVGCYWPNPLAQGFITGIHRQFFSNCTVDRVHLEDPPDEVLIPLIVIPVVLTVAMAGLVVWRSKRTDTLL
Assay: cell-based or functional assay

hAMYR3 EC50 (nM); cAMP induction: 0.09 nM
B1: [19CD]-isoGlu-R-C( )-NTAT-C( )-ATERLAHFLQRSSF-Gly(Me)-A-Ile(Me)-LSSTEVGSDT-Hyp-NH2 (Compd. 60) (peptide)
peptide: {C20 diacid-γGlu}-RCNTATCATERLAHFLQRSSF[Sar]A[NMeI]LSSTEVGSDT[Hyp]-NH2
modifications: disulfide 2-7
SMILES: CC[C@H](C)[C@@H](C(=O)N[C@@H](CC(C)C)C(=O)N[C@@H](CO)C(=O)N[C@@H](CO)C(=O)N[C@H](C(=O)N[C@@H](CCC(=O)O)C(=O)N[C@H](C(=O)NCC(=O)N[C@@H](CO)C(=O)N[C@@H](CC(=O)O)C(=O)N[C@H](C(=O)N1C[C@H](O)C[C@H]1C(N)=O)[C@@H](C)O)C(C)C)[C@@H](C)O)N(C)C(=O)[C@H](C)NC(=O)CN(C)C(=O)[C@H](Cc1ccccc1)NC(=O)[C@H](CO)NC(=O)[C@H](CO)NC(=O)[C@H](CCCNC(=N)N)NC(=O)[C@H](CCC(N)=O)NC(=O)[C@H](CC(C)C)NC(=O)[C@H](Cc1ccccc1)NC(=O)[C@H](Cc1c[nH]cn1)NC(=O)[C@H](C)NC(=O)[C@H](CC(C)C)NC(=O)[C@H](CCCNC(=N)N)NC(=O)[C@H](CCC(=O)O)NC(=O)[C@@H](NC(=O)[C@H](C)NC(=O)[C@@H]1CSSC[C@H](NC(=O)[C@H](CCCNC(=N)N)NC(=O)CC[C@H](NC(=O)CCCCCCCCCCCCCCCCCCC(=O)O)C(=O)O)C(=O)N[C@@H](CC(N)=O)C(=O)N[C@@H]([C@@H](C)O)C(=O)N[C@@H](C)C(=O)N[C@@H]([C@@H](C)O)C(=O)N1)[C@@H](C)O

hAMYR3 EC50 (nM); cAMP induction: 0.37 nM
B2: [19CD]-isoGlu-R-C( )-PTAT-C( )-ATERLAHFLQRSSF-Gly(Me)-A-Ile(Me)-LSSTEVGSNT-Hyp-NH2 (Compd. 63) (peptide)
peptide: {C20 diacid}-[γGlu]RCPTATCATERLAHFLQRSSF[Sar]A[NMeI]LSSTEVGSNT[Hyp]-NH2
modifications: disulfide 3-8
SMILES: CC[C@H](C)[C@@H](C(=O)N[C@@H](CC(C)C)C(=O)N[C@@H](CO)C(=O)N[C@@H](CO)C(=O)N[C@H](C(=O)N[C@@H](CCC(=O)O)C(=O)N[C@H](C(=O)NCC(=O)N[C@@H](CO)C(=O)N[C@@H](CC(N)=O)C(=O)N[C@H](C(=O)N1C[C@H](O)C[C@H]1C(N)=O)[C@@H](C)O)C(C)C)[C@@H](C)O)N(C)C(=O)[C@H](C)NC(=O)CN(C)C(=O)[C@H](Cc1ccccc1)NC(=O)[C@H](CO)NC(=O)[C@H](CO)NC(=O)[C@H](CCCNC(=N)N)NC(=O)[C@H](CCC(N)=O)NC(=O)[C@H](CC(C)C)NC(=O)[C@H](Cc1ccccc1)NC(=O)[C@H](Cc1c[nH]cn1)NC(=O)[C@H](C)NC(=O)[C@H](CC(C)C)NC(=O)[C@H](CCCNC(=N)N)NC(=O)[C@H](CCC(=O)O)NC(=O)[C@@H](NC(=O)[C@H](C)NC(=O)[C@@H]1CSSC[C@H](NC(=O)[C@H](CCCNC(=N)N)NC(=O)CC[C@H](NC(=O)CCCCCCCCCCCCCCCCCCC(=O)O)C(=O)O)C(=O)N2CCC[C@H]2C(=O)N[C@@H]([C@@H](C)O)C(=O)N[C@@H](C)C(=O)N[C@@H]([C@@H](C)O)C(=O)N1)[C@@H](C)O

hAMYR3 EC50 (nM); cAMP induction: 0.22 nM
B3: [19CD]-isoGlu-R-C( )-NTAT-C( )-ATERLAHFLQRSSF-Gly(Me)-A-Ile(Me)-LSSTEVGSNTP-NH2 (Compd. 62) (peptide)
peptide: {C20 diacid-γGlu}-RCNTATCATERLAHFLQRSSF[Sar]A[NMeI]LSSTEVGSNTP-NH2
modifications: disulfide 2-7
SMILES: CC[C@H](C)[C@@H](C(=O)N[C@@H](CC(C)C)C(=O)N[C@@H](CO)C(=O)N[C@@H](CO)C(=O)N[C@H](C(=O)N[C@@H](CCC(=O)O)C(=O)N[C@H](C(=O)NCC(=O)N[C@@H](CO)C(=O)N[C@@H](CC(N)=O)C(=O)N[C@H](C(=O)N1CCC[C@H]1C(N)=O)[C@@H](C)O)C(C)C)[C@@H](C)O)N(C)C(=O)[C@H](C)NC(=O)CN(C)C(=O)[C@H](Cc1ccccc1)NC(=O)[C@H](CO)NC(=O)[C@H](CO)NC(=O)[C@H](CCCNC(=N)N)NC(=O)[C@H](CCC(N)=O)NC(=O)[C@H](CC(C)C)NC(=O)[C@H](Cc1ccccc1)NC(=O)[C@H](Cc1c[nH]cn1)NC(=O)[C@H](C)NC(=O)[C@H](CC(C)C)NC(=O)[C@H](CCCNC(=N)N)NC(=O)[C@H](CCC(=O)O)NC(=O)[C@@H](NC(=O)[C@H](C)NC(=O)[C@@H]1CSSC[C@H](NC(=O)[C@H](CCCNC(=N)N)NC(=O)CC[C@H](NC(=O)CCCCCCCCCCCCCCCCCCC(=O)O)C(=O)O)C(=O)N[C@@H](CC(N)=O)C(=O)N[C@@H]([C@@H](C)O)C(=O)N[C@@H](C)C(=O)N[C@@H]([C@@H](C)O)C(=O)N1)[C@@H](C)O

hAMYR3 EC50 (nM); cAMP induction: 0.15 nM
B4: [19CD]-isoGlu-R-C( )-PTAT-C( )-ATQRLAHFLQRSSF-Gly(Me)-A-Ile(Me)-LSSTEVGSNT-Hyp-NH2 (Compd. 64) (peptide)
peptide: {C20 diacid}-[γGlu]RCPTATCATQRLAHFLQRSSF[Sar]A[NMeI]LSSTEVGSNT[Hyp]-NH2
modifications: disulfide 3-8
SMILES: CC[C@H](C)[C@@H](C(=O)N[C@@H](CC(C)C)C(=O)N[C@@H](CO)C(=O)N[C@@H](CO)C(=O)N[C@H](C(=O)N[C@@H](CCC(=O)O)C(=O)N[C@H](C(=O)NCC(=O)N[C@@H](CO)C(=O)N[C@@H](CC(N)=O)C(=O)N[C@H](C(=O)N1C[C@H](O)C[C@H]1C(N)=O)[C@@H](C)O)C(C)C)[C@@H](C)O)N(C)C(=O)[C@H](C)NC(=O)CN(C)C(=O)[C@H](Cc1ccccc1)NC(=O)[C@H](CO)NC(=O)[C@H](CO)NC(=O)[C@H](CCCNC(=N)N)NC(=O)[C@H](CCC(N)=O)NC(=O)[C@H](CC(C)C)NC(=O)[C@H](Cc1ccccc1)NC(=O)[C@H](Cc1c[nH]cn1)NC(=O)[C@H](C)NC(=O)[C@H](CC(C)C)NC(=O)[C@H](CCCNC(=N)N)NC(=O)[C@H](CCC(N)=O)NC(=O)[C@@H](NC(=O)[C@H](C)NC(=O)[C@@H]1CSSC[C@H](NC(=O)[C@H](CCCNC(=N)N)NC(=O)CC[C@H](NC(=O)CCCCCCCCCCCCCCCCCCC(=O)O)C(=O)O)C(=O)N2CCC[C@H]2C(=O)N[C@@H]([C@@H](C)O)C(=O)N[C@@H](C)C(=O)N[C@@H]([C@@H](C)O)C(=O)N1)[C@@H](C)O

hAMYR3 EC50 (nM); cAMP induction: 0.17 nM
B5: [19CD]-isoGlu-R-C( )-NTAT-C( )-ATQRLAHFLQRSSF-Gly(Me)-A-Ile(Me)-LSSTEVGSNTP-NH2 (Compd. 61) (peptide)
peptide: {C20 diacid}-[γGlu]RCNTATCATQRLAHFLQRSSF[Sar]A[NMeI]LSSTEVGSNTP-NH2
modifications: disulfide 3-8
SMILES: CC[C@H](C)[C@@H](C(=O)N[C@@H](CC(C)C)C(=O)N[C@@H](CO)C(=O)N[C@@H](CO)C(=O)N[C@H](C(=O)N[C@@H](CCC(=O)O)C(=O)N[C@H](C(=O)NCC(=O)N[C@@H](CO)C(=O)N[C@@H](CC(N)=O)C(=O)N[C@H](C(=O)N1CCC[C@H]1C(N)=O)[C@@H](C)O)C(C)C)[C@@H](C)O)N(C)C(=O)[C@H](C)NC(=O)CN(C)C(=O)[C@H](Cc1ccccc1)NC(=O)[C@H](CO)NC(=O)[C@H](CO)NC(=O)[C@H](CCCNC(=N)N)NC(=O)[C@H](CCC(N)=O)NC(=O)[C@H](CC(C)C)NC(=O)[C@H](Cc1ccccc1)NC(=O)[C@H](Cc1c[nH]cn1)NC(=O)[C@H](C)NC(=O)[C@H](CC(C)C)NC(=O)[C@H](CCCNC(=N)N)NC(=O)[C@H](CCC(N)=O)NC(=O)[C@@H](NC(=O)[C@H](C)NC(=O)[C@@H]1CSSC[C@H](NC(=O)[C@H](CCCNC(=N)N)NC(=O)CC[C@H](NC(=O)CCCCCCCCCCCCCCCCCCC(=O)O)C(=O)O)C(=O)N[C@@H](CC(N)=O)C(=O)N[C@@H]([C@@H](C)O)C(=O)N[C@@H](C)C(=O)N[C@@H]([C@@H](C)O)C(=O)N1)[C@@H](C)O

hAMYR3 EC50 (nM); cAMP induction: 0.22 nM
B6: [19CD]-isoGlu-R-C( )-GTAT-C( )-ATERLAHFLNRSSF-Gly(Me)-A-Ile(Me)-LSSTEVGSNT-Hyp-NH2 (Compd. 6) (peptide)
peptide: {C20 diacid}-[γGlu]RCGTATCATERLAHFLNRSSF[Sar]A[NMeI]LSSTEVGSNT[Hyp]-NH2
modifications: disulfide 3-8
SMILES: CC[C@H](C)[C@@H](C(=O)N[C@@H](CC(C)C)C(=O)N[C@@H](CO)C(=O)N[C@@H](CO)C(=O)N[C@H](C(=O)N[C@@H](CCC(=O)O)C(=O)N[C@H](C(=O)NCC(=O)N[C@@H](CO)C(=O)N[C@@H](CC(N)=O)C(=O)N[C@H](C(=O)N1C[C@H](O)C[C@H]1C(N)=O)[C@@H](C)O)C(C)C)[C@@H](C)O)N(C)C(=O)[C@H](C)NC(=O)CN(C)C(=O)[C@H](Cc1ccccc1)NC(=O)[C@H](CO)NC(=O)[C@H](CO)NC(=O)[C@H](CCCNC(=N)N)NC(=O)[C@H](CC(N)=O)NC(=O)[C@H](CC(C)C)NC(=O)[C@H](Cc1ccccc1)NC(=O)[C@H](Cc1c[nH]cn1)NC(=O)[C@H](C)NC(=O)[C@H](CC(C)C)NC(=O)[C@H](CCCNC(=N)N)NC(=O)[C@H](CCC(=O)O)NC(=O)[C@@H](NC(=O)[C@H](C)NC(=O)[C@@H]1CSSC[C@H](NC(=O)[C@H](CCCNC(=N)N)NC(=O)CC[C@H](NC(=O)CCCCCCCCCCCCCCCCCCC(=O)O)C(=O)O)C(=O)NCC(=O)N[C@@H]([C@@H](C)O)C(=O)N[C@@H](C)C(=O)N[C@@H]([C@@H](C)O)C(=O)N1)[C@@H](C)O

hAMYR3 EC50 (nM); cAMP induction: 0.11 nM
B7: [19CD]-isoGlu-R-C( )-PTAT-C( )-ATDRLAHFLQRSSF-Gly(Me)-A-Ile(Me)-LSSTDVGSNT-Hyp-NH2 (Compd. 59) (peptide)
peptide: {C20 diacid}-[γGlu]RCPTATCATDRLAHFLQRSSF[Sar]A[NMeI]LSSTDVGSNT[Hyp]-NH2
modifications: disulfide 3-8
SMILES: CC[C@H](C)[C@@H](C(=O)N[C@@H](CC(C)C)C(=O)N[C@@H](CO)C(=O)N[C@@H](CO)C(=O)N[C@H](C(=O)N[C@@H](CC(=O)O)C(=O)N[C@H](C(=O)NCC(=O)N[C@@H](CO)C(=O)N[C@@H](CC(N)=O)C(=O)N[C@H](C(=O)N1C[C@H](O)C[C@H]1C(N)=O)[C@@H](C)O)C(C)C)[C@@H](C)O)N(C)C(=O)[C@H](C)NC(=O)CN(C)C(=O)[C@H](Cc1ccccc1)NC(=O)[C@H](CO)NC(=O)[C@H](CO)NC(=O)[C@H](CCCNC(=N)N)NC(=O)[C@H](CCC(N)=O)NC(=O)[C@H](CC(C)C)NC(=O)[C@H](Cc1ccccc1)NC(=O)[C@H](Cc1c[nH]cn1)NC(=O)[C@H](C)NC(=O)[C@H](CC(C)C)NC(=O)[C@H](CCCNC(=N)N)NC(=O)[C@H](CC(=O)O)NC(=O)[C@@H](NC(=O)[C@H](C)NC(=O)[C@@H]1CSSC[C@H](NC(=O)[C@H](CCCNC(=N)N)NC(=O)CC[C@H](NC(=O)CCCCCCCCCCCCCCCCCCC(=O)O)C(=O)O)C(=O)N2CCC[C@H]2C(=O)N[C@@H]([C@@H](C)O)C(=O)N[C@@H](C)C(=O)N[C@@H]([C@@H](C)O)C(=O)N1)[C@@H](C)O

From US20160272693A1 (ZEALAND PHARMA A S, published 2016)
